Molecular target: Sulfolobus solfataricus RNA polymerase (S. solfataricus)

Q: With “Sulfolobus solfataricus TFS4 (from UniProt Q97X43 1-92) (natural protein)” as the substance, how does the transcription elongation assay on a synthetic scaffold: excess of TFS1 over TFS4 needed for 50% relief of the inhibition by TFS4 (fold excess of TFS1 over TFS4) read?
A: Its transcription elongation assay on a synthetic scaffold: excess of TFS1 over TFS4 needed for 50% relief of the inhibition by TFS4 (fold excess of TFS1 over TFS4) is 2.

Reference: paper PMC5715097
